Patent US20250043302A1, “MUTATED HYDROXYPHENYLPYRUVATE DIOXYGENASE POLYPEPTIDE, AND CODING GENE AND USE THEREOF” (BEIJING DABEINONG BIOTECHNOLOGY CO., LTD., priority 2021, published 2025)

Columns and labels:
Format in all cases: in vivo
[1] = test system: Arabidopsis thaliana T1 plants; assay: Mesotrione tolerance of transgenic Arabidopsis thaliana T1 plants (spray, bleached leaf area grade, damage score); design: Scores: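 damage score 0-100 computed as Σ(N×S)/(T×M)×100 over grades 0-3 with higher meaning more damage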; conditions: Arabidopsis thaliana T1 plants; for Grade 0 (classification and statistics of the grade of pesticide damage; number of plants) / Grade 1 (classification and statistics of the grade of pesticide damage; number of plants) / Grade 2 (classification and statistics of the grade of pesticide damage; number of plants) / Grade 3 (classification and statistics of the grade of pesticide damage; number of plants): 16 plants
Outline: (§1)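 T1 transformants selected by glufosinate; 18-day-old plants, with empty-vector and wild-type controls, sprayed with topramezone (25–200 g ai/ha), isoxaflutole (35–280 g ai/ha) or mesotrione (52.5–420 g ai/ha), water as 0×. Bleached leaf area fraction scored at 7 DAT as grades 0–3.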

[2] = test system: Arabidopsis thaliana T1 plants; assay: Isoxaflutole tolerance of transgenic Arabidopsis thaliana T1 plants (spray, bleached leaf area grade, damage score); design: Scores (pesticide damage): scale not given here; conditions: spray, Arabidopsis thaliana T1 plants; for Classification and statistics of the grade of pesticide damage: Grade 0 (number of plants) / Classification and statistics of the grade of pesticide damage: Grade 1 (number of plants) / Classification and statistics of the grade of pesticide damage: Grade 2 (number of plants) / Classification and statistics of the grade of pesticide damage: Grade 3 (number of plants): 16 plants
Outline: as §1

[3] = test system: Arabidopsis thaliana T1 plants; assay: Topramezone tolerance of transgenic Arabidopsis thaliana T1 plants (spray, bleached leaf area grade, damage score); conditions: 7 DAT, Table 4; for Classification and statistics of the grade of pesticide damage: Grade 0 / Classification and statistics of the grade of pesticide damage: Grade 1 / Classification and statistics of the grade of pesticide damage: Grade 2 / Classification and statistics of the grade of pesticide damage: Grade 3: number of plants; for Scores: pesticide damage score 0-100
Outline: as §1

[4] = isoxaflutole 35 g ai/ha (0.5x field concentration)
[5] = isoxaflutole 70 g ai/ha (1x field concentration)

Row | Molecule | Resistance evaluation ([1]; mesotrione 52.5 g ai/ha) | Scores ([1]; mesotrione 52.5 g ai/ha) | Grade 0 (classification and statistics of the grade of pesticide damage; number of plants) ([1]; mesotrione 52.5 g ai/ha) | Grade 1 (classification and statistics of the grade of pesticide damage; number of plants) ([1]; mesotrione 52.5 g ai/ha) | Grade 2 (classification and statistics of the grade of pesticide damage; number of plants) ([1]; mesotrione 52.5 g ai/ha) | Grade 3 (classification and statistics of the grade of pesticide damage; number of plants) ([1]; mesotrione 52.5 g ai/ha) | Resistance evaluation ([1]; mesotrione 105 g ai/ha) | Scores ([1]; mesotrione 105 g ai/ha) | Grade 0 (classification and statistics of the grade of pesticide damage; number of plants) ([1]; mesotrione 105 g ai/ha) | Grade 1 (classification and statistics of the grade of pesticide damage; number of plants) ([1]; mesotrione 105 g ai/ha) | Grade 2 (classification and statistics of the grade of pesticide damage; number of plants) ([1]; mesotrione 105 g ai/ha) | Grade 3 (classification and statistics of the grade of pesticide damage; number of plants) ([1]; mesotrione 105 g ai/ha) | Resistance evaluation [2, 4] | Scores (pesticide damage) [2, 4] | Classification and statistics of the grade of pesticide damage: Grade 0 (number of plants) [2, 4] | Classification and statistics of the grade of pesticide damage: Grade 1 (number of plants) [2, 4] | Classification and statistics of the grade of pesticide damage: Grade 2 (number of plants) [2, 4] | Classification and statistics of the grade of pesticide damage: Grade 3 (number of plants) [2, 4] | Resistance evaluation [2, 5] | Scores (pesticide damage) [2, 5] | also measured
1 | OsHPPD-02: nucleotide sequence encoding wild-type Oryza sativa HPPD; vector DBN11754 (nucleic acid, OsHPPD-02 Nucleotide Sequence, vector DBN11754) DNA: ATGCCACCCACGCCAACACCAACGGCCACCACTGGTGCCGTCTCGGCCGCGGCAGCGGCCGGTGAGAATGCTGGTTTCAGGCTAGTCGGCCACCGCCGCTTCGTGAGGGCAAATCCAAGATCTGATCGGTTCCAAGCACTTGCTTTCCACCATGTTGAGCTGTGGTGCGCTGACGCCGCTTCAGCTGCCGGGAGGTTTGCTTTTGCTTTAGGGGCGCCGCTCGCCGCAAGGAGTGATCTTTCCACCGGAAATTCTGCTCATGCTTCTCTTCTACTTAGATCAGCAAGTGTTGCATTTCTGTTCACTGCACCTTATGGCGGAGACCATGGTGTCGGGGCCGATGCTGCAACAACAGCTAGCATACCATCATTTTCTCCCGGCGCCGCAAGAAGATTTGCAGCCGATCATGGCCTGGCAGTTCATGCTGTGGCATTGAGGGTCGCCGACGCGGCTGATGCGTTCCGCGCCAGCGTGGCTGCTGGAGCTAGGCCGGCGTTCCAGCCTGCTGACCTTGGGGGTGGATTTGGATTGGCGGAGGTTGAATTATATGGTGATGTTGTGCTCCGTTTTGTTTCCCATCCAGATGGTGCTGATGCTCCATTTCTACCTGGATTTGAAGGGGTGTCAAACCCCGGCGCGGTGGATTATGGACTGCGTCGATTTGATCACGTGGTAGGTAATGTTCCTGAGTTGGCTCCCGTGGCGGCCTACATTTCAGGCTTTACTGGCTTCCATGAATTTGCCGAGTTCACCGCGGAAGATGTGGGAACTGCTGAAAGTGGATTGAACTCTGTTGTCCTGGCGAACAATGCAGAGACTGTATTGCTCCCCTTGAATGAGCCTGTGCACGGCACCAAACGGCGATCTCAAATTCAGACATACCTCGACCACCACGGGGGCCCTGGTGTTCAGCATATTGCTCTAGCCAGCGACGACGTACTGGGAACACTGAGGGAGATGAGAGCCCGTTCCGCCATGGGTGGCTTTGAGTTTCTGGCCCCTCCGCCGCCAAACTACTACGACGGCGTCAGACGGCGGGCGGGTGACGTCTTGAGTGAGGAGCAGATCAATGAATGTCAAGAACTTGGGGTTCTTGTTGATAGAGATGATCAAGGAGTGCTCCTCCAAATATTCACAAAACCTGTTGGCGACCGCCCGACCTTCTTCCTTGAAATGATCCAAAGGATCGGCTGCATGGAGAAGGATGAATCGGGCCAGGAGTACCAGAAGGGTGGGTGTGGTGGCTTTGGGAAGGGCAACTTCAGCGAGCTGTTCAAGTCAATTGAAGAATATGAAAAATCATTGGAGGCAAAGCAAGCTCCGACGGTGCAGGGAAGCTGA | Non-resistant | 100 | 0 | 0 | 0 | 16 | Non-resistant | 100 | 0 | 0 | 0 | 16 | Non-resistant | 100 | 0 | 0 | 0 | 16 | Non-resistant | 100 | Classification and statistics of the grade of pesticide damage: Grade 0 (number of plants) [2, 5]: 0; Classification and statistics of the grade of pesticide damage: Grade 1 (number of plants) [2, 5]: 0; Classification and statistics of the grade of pesticide damage: Grade 2 (number of plants) [2, 5]: 0; Classification and statistics of the grade of pesticide damage: Grade 3 (number of plants) [2, 5]: 16; Classification and statistics of the grade of pesticide damage: Grade 0 ([3]; topramezone 25 g ai/ha (1×)): 0; Classification and statistics of the grade of pesticide damage: Grade 1 ([3]; topramezone 25 g ai/ha (1×)): 0; Classification and statistics of the grade of pesticide damage: Grade 2 ([3]; topramezone 25 g ai/ha (1×)): 0; Classification and statistics of the grade of pesticide damage: Grade 3 ([3]; topramezone 25 g ai/ha (1×)): 16; Classification and statistics of the grade of pesticide damage: Grade 0 ([3]; topramezone 100 g ai/ha (4×)): 0; Classification and statistics of the grade of pesticide damage: Grade 1 ([3]; topramezone 100 g ai/ha (4×)): 0; Classification and statistics of the grade of pesticide damage: Grade 2 ([3]; topramezone 100 g ai/ha (4×)): 0; Classification and statistics of the grade of pesticide damage: Grade 3 ([3]; topramezone 100 g ai/ha (4×)): 16; Scores ([3]; topramezone 25 g ai/ha (1×)): 100; Scores ([3]; topramezone 100 g ai/ha (4×)): 100; Resistance evaluation ([3]; topramezone 25 g ai/ha (1×)): non-resistant (non-resistant plants (scores 68-100)); Resistance evaluation ([3]; topramezone 100 g ai/ha (4×)): non-resistant (non-resistant plants (scores 68-100))
2 | OsHPPDm-F372A-F383W-02: nucleotide sequence encoding Oryza sativa HPPD with F372A+F383W; vector DBN11757 (nucleic acid, OsHPPDm-F372A-F383W-02 Nucleotide Sequence, vector DBN11757) DNA: ATGCCACCCACGCCAACACCAACGGCCACCACTGGTGCCGTCTCGGCCGCGGCAGCGGCCGGTGAGAATGCTGGTTTCAGGCTAGTCGGCCACCGCCGCTTCGTGAGGGCAAATCCAAGATCTGATCGGTTCCAAGCACTTGCTTTCCACCATGTTGAGCTGTGGTGCGCTGACGCCGCTTCAGCTGCCGGGAGGTTTGCTTTTGCTTTAGGGGCGCCGCTCGCCGCAAGGAGTGATCTTTCCACCGGAAATTCTGCTCATGCTTCTCTTCTACTTAGATCAGCAAGTGTTGCATTTCTGTTCACTGCACCTTATGGCGGAGACCATGGTGTCGGGGCCGATGCTGCAACAACAGCTAGCATACCATCATTTTCTCCCGGCGCCGCAAGAAGATTTGCAGCCGATCATGGCCTGGCAGTTCATGCTGTGGCATTGAGGGTCGCCGACGCGGCTGATGCGTTCCGCGCCAGCGTGGCTGCTGGAGCTAGGCCGGCGTTCCAGCCTGCTGACCTTGGGGGTGGATTTGGATTGGCGGAGGTTGAATTATATGGTGATGTTGTGCTCCGTTTTGTTTCCCATCCAGATGGTGCTGATGCTCCATTTCTACCTGGATTTGAAGGGGTGTCAAACCCCGGCGCGGTGGATTATGGACTGCGTCGATTTGATCACGTGGTAGGTAATGTTCCTGAGTTGGCTCCCGTGGCGGCCTACATTTCAGGCTTTACTGGCTTCCATGAATTTGCCGAGTTCACCGCGGAAGATGTGGGAACTGCTGAAAGTGGATTGAACTCTGTTGTCCTGGCGAACAATGCAGAGACTGTATTGCTCCCCTTGAATGAGCCTGTGCACGGCACCAAACGGCGATCTCAAATTCAGACATACCTCGACCACCACGGGGGCCCTGGTGTTCAGCATATTGCTCTAGCCAGCGACGACGTACTGGGAACACTGAGGGAGATGAGAGCCCGTTCCGCCATGGGTGGCTTTGAGTTTCTGGCCCCTCCGCCGCCAAACTACTACGACGGCGTCAGACGGCGGGCGGGTGACGTCTTGAGTGAGGAGCAGATCAATGAATGTCAAGAACTTGGGGTTCTTGTTGATAGAGATGATCAAGGAGTGCTCCTCCAAATAGCCACAAAACCTGTTGGCGACCGCCCGACCTTCTGGCTTGAAATGATCCAAAGGATCGGCTGCATGGAGAAGGATGAATCGGGCCAGGAGTACCAGAAGGGTGGGTGTGGTGGCTTTGGGAAGGGCAACTTCAGCGAGCTGTTCAAGTCAATTGAAGAATATGAAAAATCATTGGAGGCAAAGCAAGCTCCGACGGTGCAGGGAAGCTGA | Highly resistant | 15 | 9 | 7 | 0 | 0 | Poorly resistant | 38 | 0 | 14 | 2 | 0 | Highly | 10 | 11 | 5 | 0 | 0 | Highly | 15 | Classification and statistics of the grade of pesticide damage: Grade 0 (number of plants) [2, 5]: 9; Classification and statistics of the grade of pesticide damage: Grade 1 (number of plants) [2, 5]: 7; Classification and statistics of the grade of pesticide damage: Grade 2 (number of plants) [2, 5]: 0; Classification and statistics of the grade of pesticide damage: Grade 3 (number of plants) [2, 5]: 0; Classification and statistics of the grade of pesticide damage: Grade 0 ([3]; topramezone 25 g ai/ha (1×)): 10; Classification and statistics of the grade of pesticide damage: Grade 1 ([3]; topramezone 25 g ai/ha (1×)): 6; Classification and statistics of the grade of pesticide damage: Grade 2 ([3]; topramezone 25 g ai/ha (1×)): 0; Classification and statistics of the grade of pesticide damage: Grade 3 ([3]; topramezone 25 g ai/ha (1×)): 0; Classification and statistics of the grade of pesticide damage: Grade 0 ([3]; topramezone 100 g ai/ha (4×)): 2; Classification and statistics of the grade of pesticide damage: Grade 1 ([3]; topramezone 100 g ai/ha (4×)): 13; Classification and statistics of the grade of pesticide damage: Grade 2 ([3]; topramezone 100 g ai/ha (4×)): 1; Classification and statistics of the grade of pesticide damage: Grade 3 ([3]; topramezone 100 g ai/ha (4×)): 0; Scores ([3]; topramezone 25 g ai/ha (1×)): 13; Scores ([3]; topramezone 100 g ai/ha (4×)): 31; Resistance evaluation ([3]; topramezone 25 g ai/ha (1×)): highly; Resistance evaluation ([3]; topramezone 100 g ai/ha (4×)): moderately
